Measurements as given in publication PMC7055914.

Biological target: S. Typhi PltB (pertussis-like toxin B subunit) homopentamer (Salmonella enterica serovar Typhi) (UniProt Q8Z6A3)
Assay: […], sodium acetate pH 4.4) […]

Q: With “S. Typhi PltB (pertussis-like toxin B subunit) homopentamer (from UniProt Q8Z6A3) (natural protein)” as the substance, how does the stoichiometry N read?
A: 5
